Biological target: CLTB-106 (negative control)
Assay: ELISA, peptide at 1 ug per well, 2F5 at 40 ng per well; negative control

human neutralizing monoclonal antibody 2F5
Absorbance (450 nm) (absorbance at 450 nm): 0.07
